Data on 4 molecules can be found in publication PMC10384113, “Structural and Functional Characterization of Drosophila melanogaster α-Amylase” (Molecules, 2023).

Experiment [1] has as its target T1, DMA (Drosophila melanogaster α-amylase) (Drosophila melanogaster, UniProt P08144).
T1 construct: gene Amy-p; mature enzyme of 476 residues in crystal; recombinant, amy-p in pET22b, E. coli BL21 (kinetics, crystals); glycogen-purified; no tag mentioned
Description: residual activity on starch after inhibitor preincubation. The format is biochemical. The following applies: native DMA, Pichia-produced; inhibitor 1-50 µM, 20 mM HEPES pH 7.5, 20 mM NaCl, 1 mM CaCl2, 25 °C.

Experiment [2] has as its target Drosophila melanogaster α-amylase (Drosophila melanogaster) (UniProt P08144).

Chain of Drosophila melanogaster α-amylase (Drosophila melanogaster) (P08144 other isoform, or with tags, fused parts or gaps): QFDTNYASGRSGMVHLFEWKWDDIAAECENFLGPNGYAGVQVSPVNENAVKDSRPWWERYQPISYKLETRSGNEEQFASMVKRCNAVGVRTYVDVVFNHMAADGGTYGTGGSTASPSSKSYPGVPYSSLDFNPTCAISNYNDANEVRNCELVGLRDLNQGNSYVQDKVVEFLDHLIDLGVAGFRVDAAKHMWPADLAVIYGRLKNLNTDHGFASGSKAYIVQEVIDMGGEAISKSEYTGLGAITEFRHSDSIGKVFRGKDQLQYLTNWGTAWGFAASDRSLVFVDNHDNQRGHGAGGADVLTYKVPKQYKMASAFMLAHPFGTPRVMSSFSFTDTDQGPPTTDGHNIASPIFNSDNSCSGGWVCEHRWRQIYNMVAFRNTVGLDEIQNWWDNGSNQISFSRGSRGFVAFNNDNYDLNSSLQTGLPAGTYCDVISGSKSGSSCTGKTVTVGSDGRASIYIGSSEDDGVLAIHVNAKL
T1 sequence (P08144 with tags, fused parts or gaps): as the sequence (P08144 other isoform, or with tags, fused parts or gaps) above

Turning to `C[C@H]1O[C@H](O[C@H]2[C@H](O)[C@@H](O)[C@@H](O[C@H]3[C@H](O)[C@@H](O)C(O)O[C@@H]3CO)O[C@@H]2CO)[C@H](O)[C@@H](O)[C@@H]1N[C@H]1C=C(CO)[C@@H](O)[C@H](O)[C@H]1O` (stereo partly shown) [acarbose], the “residual activity (%)” value in experiment [1] was “Residual activity of (a) native DMA after treatment with proteinaceous inhibitors and acarbose”.

In turn, “WI-1 (tetrameric form), wheat α-amylase inhibitor from Triticum aestivum seeds (complex)” displayed a residual α-amylase activity of DMA after 20 min incubation with the inhibitor (1 to 50 µM) at 25 °C, pH 7.5; value at 10 μM WI-1 in experiment [2] of 6%.

As to “WI-3 (monomeric form), wheat α-amylase inhibitor from Triticum aestivum seeds (natural protein)”, the residual α-amylase activity of DMA after 20 min incubation with the inhibitor (1 to 50 µM) at 25 °C, pH 7.5; value at 10 μM WI-3 in experiment [2] was determined as 0.8%.

In experiment [2], “α-AI, α-amylase inhibitor from seeds of the common bean Phaseolus vulgaris (natural protein)” came in with a residual α-amylase activity of DMA after 20 min incubation with the inhibitor (1 to 50 µM) at 25 °C, pH 7.5; value at the highest concentration (50 μM) of α-AI of 38%.
